From IntAct's records for PubMed 19242489

B1: Integrin beta-4 (Homo sapiens), P16144 (parent)
chain: MAGPRPSPWARLLLAALISVSLSGTLANRCKKAPVKSCTECVRVDKDCAYCTDEMFRDRRCNTQAELLAAGCQRESIVVMESSFQITEETQIDTTLRRSQMSPQGLRVRLRPGEERHFELEVFEPLESPVDLYILMDFSNSMSDDLDNLKKMGQNLARVLSQLTSDYTIGFGKFVDKVSVPQTDMRPEKLKEPWPNSDPPFSFKNVISLTEDVDEFRNKLQGERISGNLDAPEGGFDAILQTAVCTRDIGWRPDSTHLLVFSTESAFHYEADGANVLAGIMSRNDERCHLDTTGTYTQYRTQDYPSVPTLVRLLAKHNIIPIFAVTNYSYSYYEKLHTYFPVSSLGVLQEDSSNIVELLEEAFNRIRSNLDIRALDSPRGLRTEVTSKMFQKTRTGSFHIRRGEVGIYQVQLRALEHVDGTHVCQLPEDQKGNIHLKPSFSDGLKMDAGIICDVCTCELQKEVRSARCSFNGDFVCGQCVCSEGWSGQTCNCSTGSLSDIQPCLREGEDKPCSGRGECQCGHCVCYGEGRYEGQFCEYDNFQCPRTSGFLCNDRGRCSMGQCVCEPGWTGPSCDCPLSNATCIDSNGGICNGRGHCECGRCHCHQQSLYTDTICEINYSAIHPGLCEDLRSCVQCQAWGTGEKKGRTCEECNFKVKMVDELKRAEEVVVRCSFRDEDDDCTYSYTMEGDGAPGPNSTVLVHKKKDCPPGSFWWLIPLLLLLLPLLALLLLLCWKYCACCKACLALLPCCNRGHMVGFKEDHYMLRENLMASDHLDTPMLRSGNLKGRDVVRWKVTNNMQRPGFATHAASINPTELVPYGLSLRLARLCTENLLKPDTRECAQLRQEVEENLNEVYRQISGVHKLQQTKFRQQPNAGKKQDHTIVDTVLMAPRSAKPALLKLTEKQVEQRAFHDLKVAPGYYTLTADQDARGMVEFQEGVELVDVRVPLFIRPEDDDEKQLLVEAIDVPAGTATLGRRLVNITIIKEQARDVVSFEQPEFSVSRGDQVARIPVIRRVLDGGKSQVSYRTQDGTAQGNRDYIPVEGELLFQPGEAWKELQVKLLELQEVDSLLRGRQVRRFHVQLSNPKFGAHLGQPHSTTIIIRDPDELDRSFTSQMLSSQPPPHGDLGAPQNPNAKAAGSRKIHFNWLPPSGKPMGYRVKYWIQGDSESEAHLLDSKVPSVELTNLYPYCDYEMKVCAYGAQGEGPYSSLVSCRTHQEVPSEPGRLAFNVVSSTVTQLSWAEPAETNGEITAYEVCYGLVNDDNRPIGPMKKVLVDNPKNRMLLIENLRESQPYRYTVKARNGAGWGPEREAIINLATQPKRPMSIPIIPDIPIVDAQSGEDYDSFLMYSDDVLRSPSGSQRPSVSDDTGCGWKFEPLLGEELDLRRVTWRLPPELIPRLSASSGRSSDAEAPHGPPDDGGAGGKGGSLPRSATPGPPGEHLVNGRMDFAFPGSTNSLHRMTTTSAAAYGTHLSPHVPHRVLSTSSTLTRDYNSLTRSEHSHSTTLPRDYSTLTSVSSHDSRLTAGVPDTPTRLVFSALGPTSLRVSWQEPRCERPLQGYSVEYQLLNGGELHRLNIPNPAQTSVVVEDLLPNHSYVFRVRAQSQEGWGREREGVITIESQVHPQSPLCPLPGSAFTLSTPSAPGPLVFTALSPDSLQLSWERPRRPNGDIVGYLVTCEMAQGGGPATAFRVDGDSPESRLTVPGLSENVPYKFKVQARTTEGFGPEREGIITIESQDGGPFPQLGSRAGLFQHPLQSEYSSITTTHTSATEPFLVDGLTLGAQHLEAGGSLTRHVTQEFVSRTLTTSGTLSTHMDQQFFQT

Variants of: B1
Conditions: with plec_human PLEC

effect of a mutation on the interaction	Variant
disrupting interaction	R1281A

Variants of: B1
Conditions: with plec_human PLEC
Remark: another data set of the same source

effect of a mutation on the interaction	Variant
disrupting interaction	R1225H
